What was measured:
[1] = target: T1, human CD133 (GenBank Accession O43490) (human, UniProt O43490 20-865); assay: flow cytometry, serial dilutions on HEK293-CD133 cells, anti-human Fab'2 secondary antibody
T1 construct: Full-length human CD133 overexpressed in HEK293-CD133 cells, or endogenous on Caco-2, HPAC, PL45, RWP-1 and GBM cells; In the Western blots the same protein is denatured in whole cell lysate; also called Prominin-1; cell surface CD133
T1 sequence: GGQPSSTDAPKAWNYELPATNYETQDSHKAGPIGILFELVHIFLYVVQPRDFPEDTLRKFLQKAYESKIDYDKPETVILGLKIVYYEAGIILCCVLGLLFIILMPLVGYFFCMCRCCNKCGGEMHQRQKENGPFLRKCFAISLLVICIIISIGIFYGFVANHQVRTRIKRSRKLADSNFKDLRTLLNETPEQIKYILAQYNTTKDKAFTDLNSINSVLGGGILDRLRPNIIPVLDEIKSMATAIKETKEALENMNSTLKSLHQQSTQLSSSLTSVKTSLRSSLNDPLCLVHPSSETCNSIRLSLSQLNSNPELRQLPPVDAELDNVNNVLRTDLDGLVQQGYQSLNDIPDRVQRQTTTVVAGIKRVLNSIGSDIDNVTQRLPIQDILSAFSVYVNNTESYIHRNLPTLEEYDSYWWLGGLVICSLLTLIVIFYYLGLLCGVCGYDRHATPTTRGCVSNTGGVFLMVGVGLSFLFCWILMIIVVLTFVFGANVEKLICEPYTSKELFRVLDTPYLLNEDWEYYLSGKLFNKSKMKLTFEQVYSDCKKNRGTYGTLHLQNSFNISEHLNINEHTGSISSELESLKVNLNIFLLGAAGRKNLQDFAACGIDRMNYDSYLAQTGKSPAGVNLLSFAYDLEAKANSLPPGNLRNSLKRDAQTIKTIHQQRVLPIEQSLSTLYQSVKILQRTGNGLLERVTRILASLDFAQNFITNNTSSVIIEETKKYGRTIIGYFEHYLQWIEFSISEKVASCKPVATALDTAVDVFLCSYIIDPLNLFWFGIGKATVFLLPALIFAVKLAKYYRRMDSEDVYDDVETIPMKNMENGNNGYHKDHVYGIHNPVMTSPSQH

[2] = target: T1, human CD133 (GenBank Accession O43490); assay: flow cytometry on CD133-expressing cells (cell line not given), IgG alone, secondary antibody against human Fc
[3] = target: T1, human CD133 (GenBank Accession O43490); assay: competitive flow cytometry on CD133-expressing cells first incubated with 25 nM Fab RW01, secondary antibody against human Fc
[4] = target: T1, human CD133 (GenBank Accession O43490); assay: cell-based phage ELISA (OD450)
Experimental: Following cell selections, round four output phage for each library was plated for single colonies. These colonies were grown up in an overnight culture and tested for binding to cells by cell-based ELISA. The plates were read and OD450 nm was detected and recorded. The assay measured binding of clones to CD133-overexpressing HEK293-CD133 cells (under “CD133” column headers) vs parental HEK293 cells (under “HEK293” column headers).
After four rounds of positive and negative selection, serial dilutions were made of the round four output phage (10E-1 to 10E-3) for each library and used to infect XL1-blue cells. The infected cells were plated for isolating single colonies to be used in a clonal cell-based ELISA for isolating CD133-specific binders.

B1: IgG RW03 (antibody, V domains shown)
VH: EVQLVESGGGLVQPGGSLRLSCAASGFNLSSSSIHWVRQAPGKGLEWVAYIYPYYSYTYYADSVKGRFTISADTSKNTAYLQMNSLRAEDTAVYYCARFGSVAGFDYWGQGTLVTVSS
VL: DIQMTQSPSSLSASVGDRVTITCRASQSVSSAVAWYQQKPGKAPKLLIYSASSLYSGVPSRFSGSRSGTDFTLTISSLQPEDFATYYCQQYSHAGHLFTFGQGTKVEIKR
notes: Human IgG1 (hG1) with kappa light chain (hK); variable region of Fab RW03 (Library F); also called RW03 IgG; lIgG RW03
EC50 [1]: 0.5 nM | EC50 (read off the curve) [2]: ~1 nM | EC50 (read off the curve) [3]: ~1 nM

B2: phage-Fab RW03 (Fab, V domains shown)
VH: EVQLVESGGGLVQPGGSLRLSCAASGFNLSSSSIHWVRQAPGKGLEWVAYIYPYYSYTYYADSVKGRFTISADTSKNTAYLQMNSLRAEDTAVYYCARFGSVAGFDYWGQGTLVTVSS
VL: DIQMTQSPSSLSASVGDRVTITCRASQSVSSAVAWYQQKPGKAPKLLIYSASSLYSGVPSRFSGSRSGTDFTLTISSLQPEDFATYYCQQYSHAGHLFTFGQGTKVEIK
notes: also called phage-Fab clone RW03; RW03 clone
fold binding to HEK293-CD133 cells vs HEK293 cells [4]: ≥ 1.5 fold

B3: IgG RW01 (antibody, V domains shown)
VH: EVQLVESGGGLVQPGGSLRLSCAASGFNIYYYGSMHWVRQAPGKGLEWVASISPYYGSTYYADSVKGRFTISADTSKNTAYLQMNSLRAEDTAVYYCARHASSGYGHYAVYGIDYWGQGTLVTVSS
VL: DIQMTQSPSSLSASVGDRVTITCRASQGSSYVAWYQQKPGKAPKLLIYSASYLYSGVPSRFSGSRSGTDFTLTISSLQPEDFATYYCQQGVWSLITFGQGTKVEIKR
notes: also called RW01 IgG; lIgG RW01
EC50 [1]: 2.5 nM

From patent publication US20190330362A1 (GOVERNING COUNCIL OF THE UNIVERSITY OF TORONTO, published 2019)
